Assay results reported in IntAct's records for PubMed 38225382.

How the values were obtained:
[1] = target: tri37_human TRIM37 (UniProt O94972)
[2] = target: pex3_human PEX3 (UniProt P56589)
pex3_human PEX3, sequence (P56589 whole entry): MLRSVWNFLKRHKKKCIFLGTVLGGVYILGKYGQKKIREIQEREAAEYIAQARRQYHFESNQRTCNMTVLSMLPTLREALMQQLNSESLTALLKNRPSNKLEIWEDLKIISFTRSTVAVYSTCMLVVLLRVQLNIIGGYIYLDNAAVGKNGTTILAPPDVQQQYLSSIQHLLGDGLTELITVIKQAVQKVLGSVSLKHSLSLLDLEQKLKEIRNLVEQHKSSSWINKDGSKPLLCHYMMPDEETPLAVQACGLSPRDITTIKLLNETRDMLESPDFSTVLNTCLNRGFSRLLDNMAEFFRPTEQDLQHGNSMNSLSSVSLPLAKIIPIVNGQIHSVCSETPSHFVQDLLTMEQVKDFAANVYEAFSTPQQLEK

tri37_human TRIM37, sequence (O94972 whole entry): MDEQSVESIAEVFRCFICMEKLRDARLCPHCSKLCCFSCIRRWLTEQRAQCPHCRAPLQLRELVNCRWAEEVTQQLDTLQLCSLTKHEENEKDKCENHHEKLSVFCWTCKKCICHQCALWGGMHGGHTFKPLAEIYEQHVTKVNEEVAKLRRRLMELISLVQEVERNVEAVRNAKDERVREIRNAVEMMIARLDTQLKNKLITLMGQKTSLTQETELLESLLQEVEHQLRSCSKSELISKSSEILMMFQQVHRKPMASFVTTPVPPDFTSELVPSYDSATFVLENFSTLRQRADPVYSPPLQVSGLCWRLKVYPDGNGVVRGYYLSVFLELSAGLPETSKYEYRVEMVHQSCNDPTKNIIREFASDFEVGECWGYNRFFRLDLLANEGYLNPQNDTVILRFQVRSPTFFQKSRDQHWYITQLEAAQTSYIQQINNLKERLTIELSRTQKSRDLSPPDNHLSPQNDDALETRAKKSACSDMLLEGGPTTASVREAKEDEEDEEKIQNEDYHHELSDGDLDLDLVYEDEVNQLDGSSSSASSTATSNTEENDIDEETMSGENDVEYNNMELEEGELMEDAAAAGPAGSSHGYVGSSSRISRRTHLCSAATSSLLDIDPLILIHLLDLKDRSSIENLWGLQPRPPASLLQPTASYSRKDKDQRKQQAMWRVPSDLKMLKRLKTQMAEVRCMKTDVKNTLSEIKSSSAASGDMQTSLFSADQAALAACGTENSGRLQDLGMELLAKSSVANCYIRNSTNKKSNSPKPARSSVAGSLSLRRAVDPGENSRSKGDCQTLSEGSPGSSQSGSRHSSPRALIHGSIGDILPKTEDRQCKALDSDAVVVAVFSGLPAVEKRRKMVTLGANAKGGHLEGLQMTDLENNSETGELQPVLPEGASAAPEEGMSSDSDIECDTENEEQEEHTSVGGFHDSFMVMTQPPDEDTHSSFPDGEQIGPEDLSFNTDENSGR
Peroxisomal membrane protein PEX16 (Homo sapiens), Q9Y5Y5 W189G, sequence (Q9Y5Y5 whole entry W189G): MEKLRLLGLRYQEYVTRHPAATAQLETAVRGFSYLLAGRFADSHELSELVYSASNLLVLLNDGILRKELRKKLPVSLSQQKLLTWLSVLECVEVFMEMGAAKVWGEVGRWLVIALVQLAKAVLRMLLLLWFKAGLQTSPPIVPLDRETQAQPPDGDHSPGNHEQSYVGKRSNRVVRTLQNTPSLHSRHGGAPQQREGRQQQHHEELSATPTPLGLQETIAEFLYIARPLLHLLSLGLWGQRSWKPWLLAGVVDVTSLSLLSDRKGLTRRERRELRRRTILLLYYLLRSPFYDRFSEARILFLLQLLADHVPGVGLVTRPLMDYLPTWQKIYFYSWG
Peroxisomal membrane protein PEX16 (Homo sapiens), Q9Y5Y5 K169A, sequence (Q9Y5Y5 whole entry K169A): as the sequence (Q9Y5Y5 whole entry W189G) above, with K169A, G189W counted along it

Row | effect of a mutation on the interaction [1] | effect of a mutation on the interaction [2] | Substance
1 | with no effect | – | Bifunctional polynucleotide phosphatase/kinase (Homo sapiens), Q96T60 S114D
2 | – | with no effect | Peroxisomal membrane protein PEX16 (Homo sapiens), Q9Y5Y5 W189G
3 | with no effect | – | Bifunctional polynucleotide phosphatase/kinase (Homo sapiens), Q96T60 P112R
4 | – | with no effect | Peroxisomal membrane protein PEX16 (Homo sapiens), Q9Y5Y5 K169A
